Columns and labels:
[1] = biological target: ISG65 1125G (residues 24-385) with C-terminal AviTag and His10 tag, biotinylated (T. brucei EATRO1125); assay: SPR; biotinylated ISG65G (CHO, ~800 RU) on a streptavidin chip (SA); C3b and C3c from 500 nM in two-fold dilutions to 15.6 nM; 30 ul/min, 25 C, 20 mM HEPES pH 7.4, 150 mM NaCl, 0.005% TWEEN-20; C3b fitted to a two-state reaction model, C3c to a 1:1 Langmuir model
[2] = biological target: ISG65 1125G (residues 24-385), expressed with kifunensine and deglycosylated with Endo Hf (T. brucei EATRO1125); assay: SPR; ISG65 1125G immobilised by amine coupling (345 RU) on a CM5 chip; C3d from 4 uM in two-fold serial dilutions; 30 ul/min, 25 C, 20 mM HEPES pH 7.4, 300 mM NaCl, 0.05% TWEEN-20; 1:1 Langmuir model
Human complement C3c = biological target: T1, Human complement C3c (human, UniProt P01024); assay: SPR; biotinylated ISG65G (CHO, ~800 RU) immobilised on a streptavidin chip (Series S SA); C3b and C3c from 500 nM in two-fold dilutions to 15.6 nM; 30 ul/min, 25 C, 20 mM HEPES pH 7.4, 150 mM NaCl, 0.005% TWEEN-20; C3b fitted to a two-state reaction model, C3c to the 1:1 Langmuir model; averages of three flow paths with different immobilisation levels; conditions: both partners purified
T1 construct: source: bought: Complement Technology; copies: + +
T1 sequence (P01024 23-667, chain 1 of 3): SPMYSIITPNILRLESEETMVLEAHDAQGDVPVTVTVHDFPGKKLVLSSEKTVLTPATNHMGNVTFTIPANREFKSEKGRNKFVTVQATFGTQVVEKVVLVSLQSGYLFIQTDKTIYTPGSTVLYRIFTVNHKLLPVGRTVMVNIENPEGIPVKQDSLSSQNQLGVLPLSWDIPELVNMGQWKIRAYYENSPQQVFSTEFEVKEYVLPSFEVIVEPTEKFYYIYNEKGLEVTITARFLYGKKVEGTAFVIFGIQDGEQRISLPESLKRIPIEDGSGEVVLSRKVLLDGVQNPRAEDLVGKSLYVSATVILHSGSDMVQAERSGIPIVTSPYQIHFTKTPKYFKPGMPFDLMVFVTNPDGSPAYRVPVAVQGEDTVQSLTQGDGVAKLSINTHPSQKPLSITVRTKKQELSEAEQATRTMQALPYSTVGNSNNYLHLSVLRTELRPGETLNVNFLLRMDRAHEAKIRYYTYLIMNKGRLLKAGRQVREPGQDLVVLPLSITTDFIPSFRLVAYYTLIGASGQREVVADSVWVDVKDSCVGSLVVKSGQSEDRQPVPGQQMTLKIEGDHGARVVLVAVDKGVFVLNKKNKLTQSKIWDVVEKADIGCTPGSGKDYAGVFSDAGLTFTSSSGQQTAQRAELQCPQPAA
T1 sequence (P01024 749-954, chain 2 of 3): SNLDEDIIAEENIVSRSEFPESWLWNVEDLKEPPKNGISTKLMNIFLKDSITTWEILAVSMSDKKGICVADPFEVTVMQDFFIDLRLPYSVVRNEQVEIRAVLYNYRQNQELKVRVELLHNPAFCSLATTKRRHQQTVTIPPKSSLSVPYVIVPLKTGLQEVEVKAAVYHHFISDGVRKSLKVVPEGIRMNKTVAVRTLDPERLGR
T1 sequence (P01024 1321-1663, chain 3 of 3): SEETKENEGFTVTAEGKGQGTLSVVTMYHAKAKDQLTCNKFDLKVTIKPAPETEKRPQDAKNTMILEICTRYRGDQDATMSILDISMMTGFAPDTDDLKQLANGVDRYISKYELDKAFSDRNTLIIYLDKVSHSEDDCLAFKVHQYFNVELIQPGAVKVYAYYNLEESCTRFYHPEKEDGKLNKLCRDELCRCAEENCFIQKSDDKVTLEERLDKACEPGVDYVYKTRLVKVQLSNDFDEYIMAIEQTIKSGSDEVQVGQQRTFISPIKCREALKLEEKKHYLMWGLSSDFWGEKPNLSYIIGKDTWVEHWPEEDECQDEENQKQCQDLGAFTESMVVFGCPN

Human complement C3b = biological target: T2, Human complement C3b (human, UniProt P01024); assay: as above; conditions: both partners purified
T2 construct: source: bought: Complement Technology
T2 sequence (P01024 23-667, chain 1 of 2): as the sequence (P01024 23-667, chain 1 of 3) above
T2 sequence (P01024 749-1663, chain 2 of 2): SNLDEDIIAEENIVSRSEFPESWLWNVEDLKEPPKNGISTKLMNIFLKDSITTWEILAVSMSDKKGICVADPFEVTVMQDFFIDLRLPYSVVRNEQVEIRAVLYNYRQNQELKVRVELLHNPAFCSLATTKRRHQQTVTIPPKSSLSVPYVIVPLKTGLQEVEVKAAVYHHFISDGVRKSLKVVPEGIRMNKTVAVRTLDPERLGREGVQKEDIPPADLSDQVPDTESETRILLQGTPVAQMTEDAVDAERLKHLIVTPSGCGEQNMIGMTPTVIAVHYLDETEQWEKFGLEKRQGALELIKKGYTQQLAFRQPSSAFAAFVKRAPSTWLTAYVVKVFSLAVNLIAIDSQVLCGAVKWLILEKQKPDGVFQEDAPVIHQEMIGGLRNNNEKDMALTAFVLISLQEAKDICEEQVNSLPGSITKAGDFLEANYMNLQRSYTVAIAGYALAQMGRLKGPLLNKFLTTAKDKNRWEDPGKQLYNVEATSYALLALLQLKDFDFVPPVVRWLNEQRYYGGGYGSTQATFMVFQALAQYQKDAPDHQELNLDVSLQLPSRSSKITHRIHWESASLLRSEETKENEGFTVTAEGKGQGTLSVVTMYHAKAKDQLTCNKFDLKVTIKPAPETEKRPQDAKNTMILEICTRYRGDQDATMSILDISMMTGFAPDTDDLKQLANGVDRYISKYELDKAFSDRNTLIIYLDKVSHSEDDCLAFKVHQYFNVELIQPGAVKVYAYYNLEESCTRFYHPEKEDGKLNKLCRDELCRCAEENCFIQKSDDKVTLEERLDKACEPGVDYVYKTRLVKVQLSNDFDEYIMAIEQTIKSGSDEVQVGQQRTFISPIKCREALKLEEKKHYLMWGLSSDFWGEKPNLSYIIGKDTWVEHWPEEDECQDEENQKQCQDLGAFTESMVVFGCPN

[3] = biological target: T3, Complement C3d (residues 996-1303 of H. sapiens C3, C1010A) (human, UniProt P01024 996-1303, C1010A); assay: SPR; ISG65 1125G immobilised by amine coupling (345 RU) on a CM5 chip; C3d from 4 uM in two-fold dilutions; 30 ul/min, 25 C, 20 mM HEPES pH 7.4, 300 mM NaCl, 0.05% TWEEN-20; 1:1 Langmuir model; averages of three repeats on the same flow path; conditions: both partners purified
T3 construct: also called C3d-WT; TED domain
T3 sequence (P01024 996-1303 C1010A): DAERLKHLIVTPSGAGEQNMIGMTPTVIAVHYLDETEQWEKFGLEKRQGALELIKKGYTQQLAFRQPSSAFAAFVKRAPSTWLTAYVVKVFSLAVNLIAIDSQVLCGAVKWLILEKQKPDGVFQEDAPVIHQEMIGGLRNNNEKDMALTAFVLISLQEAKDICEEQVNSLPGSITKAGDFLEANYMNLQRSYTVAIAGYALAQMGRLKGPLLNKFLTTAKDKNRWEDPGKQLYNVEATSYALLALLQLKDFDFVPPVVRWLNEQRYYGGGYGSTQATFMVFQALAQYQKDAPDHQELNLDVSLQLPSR

human complement C3c (domain or fragment)
Kd [1]: 750 nM

human complement C3d (C3 residues 996-1303, C1010A) (from UniProt P01024 996-1303) (domain or fragment)
Kd [2]: 602 nM

human complement C3b (from UniProt P01024 749-1663) (domain or fragment)
Kd [1]: 40 nM

B1: ISG65 1125G (residues 24-385), biotinylated (domain or fragment)
chain: EDNRVPGDKNLTKEGAAALCKMKHLADKVAEKRSQELKDRTQNFAGYIEFELYRIDYWLEKLNGPKGRKDGYAKLSDSDIEKVKEIFDKAKDGIAKQLPEAKKAGEDAEKLHTEVKEAAANARGQDLDDHKQKSTGLYRVLNWYCITKEESHNATPNCDGIQFRNHYLSVNRSAIDCSSTGYEENYDWSANALQVALNSWENVKPKKLESAGSDENCNIGQSSESHPCTMTEEWQTHYKETVKKLKELEGAHEKGRRAHDAMLGYANTAYAVNTKVEQEKPLAEVIAAAKEAGKKGAKIIIPAAAPVTPTNSTKNEDSAPTEHVDRGIATNETQVEVGIDADFDGLLEAAEAAEVTRRHQKTGSGSGSASG
modifications: biotin on the AviTag
notes: also called ISG65G; ISG65 E1125G
Kd (Human complement C3c): 391 nM
koff (Human complement C3c): 0.008 s⁻¹
kon (Human complement C3c): 20000 M⁻¹ s⁻¹
Kd (Human complement C3b): 67 nM

B2: ISG65 1125G (residues 24-385), expressed with kifunensine and treated with Endo Hf (domain or fragment)
chain: B1 chain
notes: also called ISG65G
Kd [3]: 514 nM
koff [3]: 0.1 s⁻¹
kon [3]: 300000 M⁻¹ s⁻¹

From paper PMC9424271, “Invariant surface glycoprotein 65 of Trypanosoma brucei is a complement C3 receptor” (Nature Communications, 2022)
